Reference: article doi:10.1101/2025.04.16.649111, “Nanobinders for Synaptotagmin 1 enable the analysis of synaptic vesicle dynamics in rodent and human models” (bioRxiv, 2025)
Each block holds one binder with its values, some of them ahead of it.

Assays:
Settings in all cases: one partner purified
[1] = target: T1, endogenous Synaptotagmin 1 of mouse brain and mouse neurons (mouse (endogenous in brain and primary …, UniProt P46096)); assay: co-IP; immunoprecipitation: GFP-tagged nanobody pre-loaded on GFP Selector beads, incubated 1 h at 4 °C with pre-cleared lysate of WT or Syt1 KO mouse brain; blot with Syt1 cytoplasmic antibody
T1 construct: Synaptotagmin 1, mouse, endogenous whole protein (in brain extract for the immunoprecipitation, on living neurons for the uptake); also called endogenous Syt1; Syt1; source: endogenous, WT mouse brain lysate; endogenous, mouse primary neurons
T1 sequence (P46096 whole entry): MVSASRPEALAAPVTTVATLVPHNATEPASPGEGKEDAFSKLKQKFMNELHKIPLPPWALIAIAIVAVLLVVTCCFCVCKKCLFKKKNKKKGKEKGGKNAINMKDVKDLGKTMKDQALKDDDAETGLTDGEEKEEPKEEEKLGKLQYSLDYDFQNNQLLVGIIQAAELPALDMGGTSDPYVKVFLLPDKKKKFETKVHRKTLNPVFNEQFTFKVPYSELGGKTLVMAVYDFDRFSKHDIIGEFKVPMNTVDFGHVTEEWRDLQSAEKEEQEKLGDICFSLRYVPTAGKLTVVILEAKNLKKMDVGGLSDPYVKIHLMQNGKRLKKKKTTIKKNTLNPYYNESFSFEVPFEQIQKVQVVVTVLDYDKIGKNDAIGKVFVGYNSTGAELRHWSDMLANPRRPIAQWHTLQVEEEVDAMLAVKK

[2] = target: T2, endogenous human Synaptotagmin 1 in human iPSC-derived hypothalamic-like neurons (human, UniProt P21579); assay: immunostaining of cells or tissue; live uptake in 80-day old human iPSC-derived hypothalamic neurons: surface pool blocked with 4.85 µM unlabeled nanobody, then 5.5 µM pHluorin-labelled nanobody with 30 mM KCl or 1 µM TTX, 20 min at 37 °C; fixed, anti-GFP and anti-Syt1
T2 construct: Synaptotagmin 1, human, endogenous; also called human Syt1; source: endogenous, human iPSC-derived hypothalamic neurons (living cells)
T2 sequence (P21579 whole entry): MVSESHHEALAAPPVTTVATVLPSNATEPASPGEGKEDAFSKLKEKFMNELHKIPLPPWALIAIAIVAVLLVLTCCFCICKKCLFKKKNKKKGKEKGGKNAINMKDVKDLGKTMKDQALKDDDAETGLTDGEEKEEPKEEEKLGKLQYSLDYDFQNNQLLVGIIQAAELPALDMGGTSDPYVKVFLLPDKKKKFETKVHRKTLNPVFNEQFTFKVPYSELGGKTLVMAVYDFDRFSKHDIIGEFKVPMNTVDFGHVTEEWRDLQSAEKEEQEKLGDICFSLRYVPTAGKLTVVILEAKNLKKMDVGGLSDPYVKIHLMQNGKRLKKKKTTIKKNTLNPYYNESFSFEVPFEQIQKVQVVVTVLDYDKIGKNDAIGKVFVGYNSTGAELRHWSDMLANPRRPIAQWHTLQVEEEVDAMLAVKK

[3] = target: T3, endogenous Synaptotagmin 1 of primary hippocampal neurons (rat) (rat (endogenous in hippocampal neurons), UniProt P21707); assay: proximity labelling; NbLumSyt1-APEX2 taken up live by primary neurons (30 min with biotin-phenol), 1 mM H2O2 for 30 s; streptavidin bead enrichment, LC-MS/MS; controls NbALFA-APEX2 or no nanobody
T3 construct: Synaptotagmin 1, endogenous in primary hippocampal neurons; the spectra were searched against the Rattus norvegicus proteome (UP000234681) and neurons were in most cases from Wistar pups; also called Syt1; Syt1-lum; source: endogenous, primary hippocampal neurons (living cells)
T3 sequence (P21707 whole entry): as the sequence (P46096 whole entry) above, with R6H counted along it

binding result [1]: binds
B1: NbLumSyt1 fused to a GFP-tag (VHH)
VHH: EVQLVESGGGLVQTGGSLRLSCTASGSIGSISVMGWYRQVPGTQYELVAGISRGGSTWYEDSVKGRFTISRDNAKNTLYLQMNSLKPEDTGMYYCAGGDYSDRLGSWGQGTQVTVSS
notes: as the VHH of m1: NbLumSyt1, clone 1F12; PDB 8B8I chain A; Held on GFP Selector beads in the immunoprecipitation; detected with anti-GFP in the uptake assay; also called GFP tagged Nanobody; GFP-tagged nanobody; source: E. coli NEB SHuffle Express T7, purified (Ni-NTA, protease elution, MonoQ)

binding result [2]: binds
B2: NbLumSyt1-pHluorin (VHH)
VHH: B1 VHH
notes: as the VHH of m1: NbLumSyt1, clone 1F12; PDB 8B8I chain A; Detected with anti-GFP after fixation in the human neuron uptake; also called pHluorin-labelled Syt1 nanobody; Syt1 pHluorin Nb; source: E. coli NEB SHuffle Express T7, purified (Ni-NTA, protease elution, MonoQ)

binding result [3]: binds
B3: NbLumSyt1-APEX2 (VHH)
VHH: B1 VHH
notes: as the VHH of m1: NbLumSyt1, clone 1F12; PDB 8B8I chain A; also called Nb-APEX2
